# Measured values taken from article PMC9951844 (Nature Communications, 2023).
# Changes are numbered by the printed parent chain.
# B1: YB12-269 (antibody, V domains shown)
# VH: EVQLVESGGALVRPGGSLRVSCAASGITVNFNYMTWVRQGPGKGLEWVASIYPGGSTFYADSVKGRFTISRDNSKNTLYLQMTSVRDEDTALYYCARDEGPGMDVWGQGTTVTVSS
# VL: QSVLTQPPSVSGAPGQRVTISCTGYSSNIEAGSDVHWYQQPPGTAPKLLIYNNNNRPSGVPDRFSGSKSGTSASLAITGLQPGDEGDYYCQSYDSRLSGYVFGTGTKVTVL
# B2: YB12-267 (antibody, V domains shown)
# VH: KVQLVESGGGLIQPGGSLRLSCAASGLTVSSNYMNWVRQAPGKGLEWVSLIFSGGSTYYADSVKGRFTISRDYSKNTLYLQMNSLRAEDTAVYYCARDLMEVGGMDVWGQGTTVTVSS
# VL: QSVLTQPPSASGTPGQRVTISCSGSSSYIGSIYWYQQLPGAAPKLLVFSDHKRPSGVPDRFSGSKSGTSASLAISGLQSEDEAGYYCATWDDSLNGYVFGTGTKVTVL
# B3: YB9-102 (antibody, V domains shown)
# VH: EVQLLESGGGLVQPGGSLRLSCTASGFTFRYYAMTWVRQAPGKGLEWVSVIIGSGGDTYYADSVKGRFTISRDNSKNTLYLQMDSLRAEDTAVYYCATGELELGTCYFDYWGQGTLVTVSS
# VL: DIQMTQSPSSVSASVGDRVTITCRASQGISSWLAWYQQKPGEAPKLLISAASSLQSGVPSRFSGSGSETDFTLTISSVQPEDFATYYCQQANSFPQAFGQGTKVEIK
# B4: YB12-202 (antibody, V domains shown)
# VH: EVQLVQSGAEVKKPGESLKISCKGSGYSFISYWIVWVRQMPGKGLEWMGIIYPGDSDTRYSPSFHGQVTISADKSFSTAYLQWSSLKASDTAMYYCATTPHLYGGADYWGQGTLVTVSS
# VL: not shown
# B5: YB13-217 (antibody, V domains shown)
# V domain 1: QVQLVESGGGVVQPGKSLRLSCTASGFTFSSHSMHWVRQAPGKGLDWVAVISFDGTKNYFADSLKGRFSVSRDNSRNTLYLQMNSLRVEDTAVYYCAREEGGSRMYHYYYGMDVWGQGTTVTVSS
# V domain 2: QSVLTQPPSASGTPGQRVTISCSGSSSNIGTNTVNWYQQLPGTAPKLLIYTNNQRPSGVPDRFSGSKSGTSASLAIGGLQSEDEADYYCAAWDDSVSSYVFGTGTQVTAL
# B6: YB13-209 (antibody, V domains shown)
# VH: EVQLVESGGGLVKPGGSLKLSCAASGFSFVNAWMSWVRQAPGKGLEWVGRIKDKIDGGTTDYAAPVKGRFSISRDDSKNMLYLQMTSLKTEDTAVYYCTTGYNWHYGIEYWGQGTLVTVSS
# VL: DIQMTQSPSSLSASVGDRVTVTCRASQSINSYLNWYQQKPGKAPKLLIYAASSLQSGVPSRFSGSGSGTDFTLTISSLQAEDFATYYCQQSYSTPDTFGQGTKLEIK
# B7: YB12-187 (antibody, V domains shown)
# VH: EVQLVESGGGLVKPGGSLRLSCAASGFIFSTYSMNWVRQAPGKGLEWVSSISSFSTYIYYADSVKGRFTISRDNAKNSLYLQMNSLRAEDTAVYYCASGQMYSGSYPSGDYFDYWGQGTLVTVSS
# VL: LSVLTQPPSVSGAPGQRVTISCTGSSSNIGADYDVHWYQQLPGTAPKLLIYGNTNRPSGVPDRFSGSKSGTSASLAITGLQAEDEAHYYCQSYDTSLSGVVFGGGTKLTVL
# B8: YB13-216 (antibody, V domains shown)
# VH: QVQLVESGGGVVQPGSSLRISCAASGFTFSSYGMHWVRQGPGKGLEWVAVIWDDGSGKHYAVSVKGRFTISRDNSKNTLYLQMNSLRVEDTAVYYCARDEGTTVTFFDYWGQGTLVTVSS
# VL: DIQMTQSPSSLSASVGDRITITCRASQSIRTYLNWYQQKPGKAPKLLIYTSSSLQSGVPSRFSGSGSGTDFTLTISSLQPEDFATYFCQQSYSTPPWTFGQGTKVEIK
# B9: YB12-203 (antibody, V domains shown)
# VH: QIQLQQSGPGLVEPSQTLSLTCAISGDSVSSISAAWNWIRQSPSRGLEWLGRTYYRSKWYNDYAVSVKSRITINPDTSKNQFSLHLNSVTPEDTAVYYCARDHLRWDIVATSLEAFDIWGQGTMVTVSS
# VL: DIVMTQSPDSLAVSLGERATINCKSSQSVLFSSNNKNSLAWYQQKPGQPPKLLIYWASTRESGVPDRFSGSGSGTDFTLTISSLQAEDVAVYYCQQYHSSLLYTFGQGTKLEIK
# B10: YB13-275 (antibody, V domains shown)
# V domain 1: QITLKESGPRLVKPTQTLTLTCTFSGFSLATAGMSVGWIRQPPGKALEWLALIYWDDDDRYSPSLKSRLTITKDTSRNQVVLTMTNMDPVDTATYYCIHPRFYSDPSGYYFIWGQGTMVTVSS
# V domain 2: SYELTQPPSVSVSPGQTARITCSGDALAKQYAYWYQQKPGQAPVQVMYKDGERPSGIPERFSGSKSGTTVTLTISAVQAEDEADYFCQSADNSGFYVFGTGTQVTVL
# B11: YB13-221 (antibody, V domains shown)
# VH: EVQLVESGGGLVQPGGSLRLSCAASGFIVSSRYMSWVRQAPGKGLEWVSVIYSDGRSYYADSVKGRFIISRDNFKNALYLQMNSLRAEDTAVYYCARDSPYRTGWFLGQSDAFDIWGQGTMVTVSS
# VL: DIQMTQSPSTLSASVGDRVTITCRASQSISSWLAWYQQKPGKAPNLLIYKASSLESGVPSRFSASGSGTEFTLTISSLQPDDFATYYCQQYNSYPPSFGQGTKVEIK
# B12: YB12-266 (antibody, V domains shown)
# VH: EVQLVESGGGLIQPGGSLRLSCAASGLTVSSNYMSWVRQAPGKGLEWVSLIYSGGTTSYADSVKGRFTISRDNSKNTLYLQMNSLRVEDTAVYYCARDLVVYGMDVWGQGTTVTVSS
# VL: AIQLTQSPSSLSASVGDRVTITCRASQGISSYLAWYQQKPGKAPKLLIYAASTLQSGVPSRFSGSGSGTDFTLTISSLQPEDFATYYCQLLNSYPLTFGGGTKVEIK
# B13: YB13-291 (antibody, V domains shown)
# V domain 1: QITLKESGPTLVKPTQTLTLTCTFSGFSLNTAGVAVGWIRQPPGKAREWLALIYWDDDQRYSPSLESRLTITKDTSKNLVVLTMTNMDPVDTATYYCAHPRYFSDNSAYYWIWGQGTMVTVSS
# V domain 2: SYDLTQPPSVSVSPGQTATISCSGDALPKQYVYWYQQKPGQAPVLVIYKDSERPSGIPERFSGSNSGTTVTLTISGVQAEDEAEYYCQSADSSGFYVFGSGTQVTVL
# B14: YB9-112 (antibody, V domains shown)
# VH: EVRLVESGGGLIQPGGSLRLSCAASGLIVSSNYMTWVRQAPGKGLEWVSVIYSGGSTFYADSVKGRFTISRDNSKNTLFLQMSSLRAEDTAIYYCARDLDYYGMDVWGQGTTVTVSS
# VL: DIQLTQSPSFLSASVGDRVTITCRASQGVASYLAWYQQKPGKAPKLLIYAASTLQSGVPSRFSGSGSGTEFTLTISSLQPEDFATYYCQHLNSYPPITFGQGTRLEIK
# B15: YB12-195 (antibody, V domains shown)
# VH: B14 VH with R3Q, L27F, T35N, F79Y, S83N, I92V, D100Q, Y101R, Y102D
# VL: SYVLTQPPSVSVAPGKTARITCGGNNIGSKNVHWYQQKPGQAPVLVIYYDSDRPSGIPERFSGSNSGNTATLTVSRVEAGDEADYYCQLWDSSSDHVVFGGGTKLTVL
# Target: SARS-CoV-2 Omicron BA.1 (B.1.1.529) RBD (SARS-CoV-2 Omicron BA.1 (B.1.1.529), strain)
row,Binder,binding result
1,B1,binds
2,B2,binds
3,B3,binds
4,B4,binds
5,B5,binds
6,B6,binds
7,B7,binds
8,B8,binds

# Target: SARS-CoV-2 wildtype S1 (SARS-CoV-2 wildtype (Wuhan), UniProt P0DTC2)
row,Binder,binding result
1,B1,binds
2,B9,binds
3,B10,binds
4,B11,binds
5,B2,binds
6,B3,binds
7,B12,binds
8,B4,binds
9,B13,binds
10,B5,binds
11,B6,binds
12,B7,binds
13,B14,binds
14,B15,binds
15,B8,binds

# Target: SARS-CoV-2 Beta (B.1.351) S1 (SARS-CoV-2 Beta (B.1.351), strain)
row,Binder,binding result
1,B1,binds
2,B9,binds
3,B10,binds
4,B11,binds
5,B2,binds
6,B3,binds
7,B12,binds
8,B4,binds
9,B13,binds
10,B5,binds
11,B6,binds
12,B7,binds
13,B14,binds
14,B8,binds

# Target: SARS-CoV-2 Delta (B.1.617.2) S1 (SARS-CoV-2 Delta (B.1.617.2), strain)
row,Binder,binding result
1,B1,binds
2,B9,binds
3,B10,binds
4,B11,binds
5,B2,binds
6,B3,binds
7,B12,binds
8,B4,binds
9,B13,binds
10,B5,binds
11,B6,binds
12,B7,binds
13,B14,binds
14,B15,binds
15,B8,binds

# Target: SARS-CoV-2 Gamma (P.1) S1 (SARS-CoV-2 Gamma (P.1), strain)
row,Binder,binding result
1,B1,binds
2,B10,binds
3,B11,binds
4,B2,binds
5,B3,binds
6,B12,binds
7,B4,binds
8,B13,binds
9,B5,binds
10,B6,binds
11,B7,binds
12,B14,binds
13,B15,binds
14,B8,binds

# Target: SARS-CoV-2 Kappa (B.1.617.1) spike ECD (SARS-CoV-2 Kappa (B.1.617.1), strain)
row,Binder,binding result
1,B1,binds
2,B9,binds
3,B10,binds
4,B11,binds
5,B2,binds
6,B3,binds
7,B12,binds
8,B4,binds
9,B13,binds
10,B5,binds
11,B6,binds
12,B7,binds
13,B14,binds
14,B15,binds
15,B8,binds

# Target: SARS-CoV-2 Lambda (C.37) RBD (SARS-CoV-2 Lambda (C.37), strain)
row,Binder,binding result
1,B1,binds
2,B9,binds
3,B10,binds
4,B11,binds
5,B2,binds
6,B3,binds
7,B12,binds
8,B4,binds
9,B13,binds
10,B5,binds
11,B6,binds
12,B7,binds
13,B14,binds
14,B15,binds
15,B8,binds
